Results from patent US20250320281A1.

Legend:
[1] = biological target: HIV-1 94UG103 Env (pseudovirus) (HIV-1); assay: cell-based or functional assay
[2] = biological target: envelope of aMLV pseudovirus (negative control); assay: cell-based or functional assay
[3] = biological target: HIV-1 92RW020 Env (pseudovirus) (HIV-1); assay: cell-based or functional assay
[4] = biological target: HIV-1 MGRM-C-028 Env (pseudovirus) (HIV-1); assay: cell-based or functional assay
[5] = biological target: HIV-1 93IN905 Env (pseudovirus) (HIV-1); assay: cell-based or functional assay
[6] = biological target: HIV-1 Env of pseudovirus isolate MGRM-G-004 (HIV-1); assay: cell-based or functional assay
[7] = biological target: HIV-1 Env of pseudovirus isolate MGRM-G-027 (HIV-1); assay: cell-based or functional assay
[8] = biological target: HIV-1 NL43 Env (pseudovirus) (HIV-1); assay: cell-based or functional assay
[9] = biological target: HIV-1 Env of pseudovirus isolate MGRM-G-019 (HIV-1); assay: cell-based or functional assay
[10] = biological target: HIV-1 APV6 Env (pseudovirus) (HIV-1); assay: cell-based or functional assay
[11] = biological target: HIV-1 Env of pseudovirus isolate MGRM-G-006 (HIV-1); assay: cell-based or functional assay
[12] = biological target: HIV-1 Env of pseudovirus isolate MGRM-G-001 (HIV-1); assay: cell-based or functional assay
[13] = biological target: HIV-1 Env of pseudovirus isolate MGRM-G-014 (HIV-1); assay: cell-based or functional assay
[14] = biological target: HIV-1 92UG024 Env (pseudovirus) (HIV-1); assay: cell-based or functional assay
[15] = biological target: HIV-1 Env of pseudovirus isolate MGRM-G-015 (HIV-1); assay: cell-based or functional assay
[16] = biological target: HIV-1 MGRM-C-027 Env (pseudovirus) (HIV-1); assay: cell-based or functional assay
[17] = biological target: HIV-1 Env of pseudovirus isolate MGRM-G-011 (HIV-1); assay: cell-based or functional assay
[18] = biological target: HIV-1 Env of pseudovirus isolate MGRM-G-013 (HIV-1); assay: cell-based or functional assay
[19] = biological target: HIV-1 MGRM-A-010 Env (pseudovirus) (HIV-1); assay: cell-based or functional assay
[20] = biological target: HIV-1 Env of pseudovirus isolate MGRM-G-017 (HIV-1); assay: cell-based or functional assay
[21] = biological target: HIV-1 CMU02 Env (pseudovirus) (HIV-1); assay: cell-based or functional assay
[22] = biological target: HIV-1 92TH021 Env (pseudovirus) (HIV-1); assay: cell-based or functional assay
[23] = biological target: HIV-1 Env of pseudovirus isolate MGRM-G-009 (HIV-1); assay: cell-based or functional assay
[24] = biological target: HIV-1 92UG005 Env (pseudovirus) (HIV-1); assay: cell-based or functional assay
[25] = biological target: HIV-1 MGRM-D-018 Env (pseudovirus) (HIV-1); assay: cell-based or functional assay
[26] = biological target: HIV-1 JRCSF Env (pseudovirus) (HIV-1) (UniProt P20871); assay: cell-based or functional assay
[27] = biological target: HIV-1 MGRM-C-026 Env (pseudovirus) (HIV-1); assay: cell-based or functional assay
[28] = biological target: HIV-1 Env of pseudovirus isolate MGRM-G-016 (HIV-1); assay: cell-based or functional assay
WT JR-FL gp120 (HIV-1) = assay: ELISA, antigen-coated wells

Sequence of 5329_C19 (PGT-136) (antibody) (VH): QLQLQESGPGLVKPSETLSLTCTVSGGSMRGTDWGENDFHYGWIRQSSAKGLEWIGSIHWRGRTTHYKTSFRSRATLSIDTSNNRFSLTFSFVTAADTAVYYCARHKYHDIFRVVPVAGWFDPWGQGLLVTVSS
Sequence of 5329_C19 (PGT-136) (antibody) (VL): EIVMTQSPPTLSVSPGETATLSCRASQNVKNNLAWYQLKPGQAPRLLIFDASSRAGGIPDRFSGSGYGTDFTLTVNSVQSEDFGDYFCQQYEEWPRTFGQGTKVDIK

With 5329_C19 (PGT-136) (antibody) the IC50 (neutralizing activity, pseudovirus) [1] was over 10 µg/mL, the IC50 (µg/mL), pseudovirus neutralization [2] was over 50 µg/mL and the neutralization IC50 (pseudovirus) [3] was 0.738 µg/mL. The IC50 (neutralizing activity, pseudovirus) [4] was over 10 µg/mL, the IC50 (neutralizing activity, pseudovirus) [5] was 0.0135 µg/mL and the IC50 (µg/mL), pseudovirus neutralization [6] was over 50 µg/mL. The IC50 (µg/mL), pseudovirus neutralization [7] was 45.2 µg/mL, the IC50 (neutralizing activity, pseudovirus) [8] was over 10 µg/mL and the IC50 (µg/mL), pseudovirus neutralization [9] was 44.3 µg/mL. It also gave an IC50 (neutralizing activity, pseudovirus) [10] of over 10 µg/mL, an IC50 (µg/mL), pseudovirus neutralization [11] of over 50 µg/mL and an IC50 (µg/mL), pseudovirus neutralization [12] of 8.11 µg/mL. It also gave an IC50 (µg/mL), pseudovirus neutralization [13] of over 50 µg/mL, an IC50 (neutralizing activity, pseudovirus) [14] of 0.0915 µg/mL and an IC50 (µg/mL), pseudovirus neutralization [15] of over 50 µg/mL. For the same substance, the IC50 (neutralizing activity, pseudovirus) [16] was over 10 µg/mL, the IC50 (µg/mL), pseudovirus neutralization [17] was over 50 µg/mL and the IC50 (µg/mL), pseudovirus neutralization [18] was over 50 µg/mL. For the same substance, the IC50 (neutralizing activity, pseudovirus) [19] was over 10 µg/mL, the IC50 (µg/mL), pseudovirus neutralization [20] was over 50 µg/mL and the IC50 (neutralizing activity, pseudovirus) [21] was over 10 µg/mL. It also gave an IC50 (neutralizing activity, pseudovirus) [22] of over 10 µg/mL, an IC50 (µg/mL), pseudovirus neutralization [23] of over 50 µg/mL and an IC50 (neutralizing activity, pseudovirus) [24] of over 10 µg/mL. It also gave an IC50 (neutralizing activity, pseudovirus) [25] of over 10 µg/mL, an IC50 (neutralizing activity, pseudovirus) [26] of over 10 µg/mL and an IC50 (neutralizing activity, pseudovirus) [27] of 0.0065 µg/mL. For the same substance, the IC50 (µg/mL), pseudovirus neutralization [28] was over 50 µg/mL and the EC50 (WT JR-FL gp120 (HIV-1)) was 0.2 µg/mL.

5136_H01 (PGT-131) (antibody) was tested, and the IC50 (µg/mL), pseudovirus neutralization [2] was over 50 µg/mL, the IC50 (µg/mL), pseudovirus neutralization [6] was over 50 µg/mL and the IC50 (µg/mL), pseudovirus neutralization [7] was 2.9 µg/mL. It also gave an IC50 (µg/mL), pseudovirus neutralization [9] of over 50 µg/mL, an IC50 (µg/mL), pseudovirus neutralization [11] of over 50 µg/mL and an IC50 (µg/mL), pseudovirus neutralization [12] of 0.404 µg/mL. It also gave an IC50 (µg/mL), pseudovirus neutralization [13] of 4.31 µg/mL, an IC50 (µg/mL), pseudovirus neutralization [15] of over 50 µg/mL and an IC50 (µg/mL), pseudovirus neutralization [17] of over 50 µg/mL. It also gave an IC50 (µg/mL), pseudovirus neutralization [18] of over 50 µg/mL, an IC50 (µg/mL), pseudovirus neutralization [20] of over 50 µg/mL and an IC50 (µg/mL), pseudovirus neutralization [23] of over 50 µg/mL. For the same substance, the IC50 (µg/mL), pseudovirus neutralization [28] was over 50 µg/mL and the EC50 (WT JR-FL gp120 (HIV-1)) was 0.4 µg/mL.

Substance 5114_A19 (PGT-128) (antibody) has an IC50 (µg/mL), pseudovirus neutralization [2] of over 50 µg/mL, an IC50 (µg/mL), pseudovirus neutralization [6] of over 50 µg/mL and an IC50 (µg/mL), pseudovirus neutralization [7] of 0.313 µg/mL. For the same substance, the IC50 (µg/mL), pseudovirus neutralization [9] was 0.01 µg/mL, the IC50 (µg/mL), pseudovirus neutralization [11] was over 50 µg/mL and the IC50 (µg/mL), pseudovirus neutralization [12] was 0.019 µg/mL. It also gave an IC50 (µg/mL), pseudovirus neutralization [13] of 0.004 µg/mL, an IC50 (µg/mL), pseudovirus neutralization [15] of over 50 µg/mL and an IC50 (µg/mL), pseudovirus neutralization [17] of 8.21 µg/mL. It also gave an IC50 (µg/mL), pseudovirus neutralization [18] of 0.995 µg/mL, an IC50 (µg/mL), pseudovirus neutralization [20] of 0.319 µg/mL and an IC50 (µg/mL), pseudovirus neutralization [23] of over 50 µg/mL. For the same substance, the IC50 (µg/mL), pseudovirus neutralization [28] was over 50 µg/mL and the EC50 (WT JR-FL gp120 (HIV-1)) was 0.1 µg/mL.
